From the supplement of paper PMC9170038

Test system: K4 kissing-loop RNA reporter
Experiment: apparent KD of K4 kissing-loop reporter; higher = weaker reporter binding
Details: Eterna round: R107
Procedure: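 RNA-MaP round R107: designed RNA switches with theophylline, tryptophan, arginine or FMN aptamers are transcribed on-chip within common flanks. They are titrated with a labelled K4 kissing-loop RNA reporter in RNA-MaP buffer (100 mM Tris pH 7.5, 80 mM KCl, 4 mM MgCl2), without ligand or with the indicated ligand. Median apparent KD per design.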

[1] = input ligand: theophylline 20 uM
[2] = input ligand: tryptophan 2.4 mM
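Note: bound reporter read as fluorescence of individual clusters on recovered sequencing chips by microscopy, with normalized cluster intensities fitted with a binding model.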

Sequence	apparent KD of K4 kissing-loop reporter (input ligand: FMN 200 uM)	apparent KD of K4 kissing-loop reporter (input ligand: arginine 13.2 mM)	apparent KD of K4 kissing-loop reporter (input ligand: none)	apparent KD of K4 kissing-loop reporter [1]	apparent KD of K4 kissing-loop reporter [2]
AAUGUACAGGGAAGGAGCGUCGUCCAGUGAUGUUGGAGUUAAAUACCAGUGAUGUUGGUUAGGCAGGUAGGUCGCCCUAAAGUAU [#08 K4 Arginine B Exclusion]	96.1 nM	71.5 nM	86.9 nM	80 nM	75.2 nM
AAUGUGCAGGGAAGGAGCGUAGUCCAGUGCUGUUGGAGUUAGAUACCAGUGAUGUUGGUUAUACAGGUAGGUCGCCCUAGAGCGC [whbob_Ex_Arginine_B_2th162]	114 nM	119 nM	124 nM	141 nM	96.3 nM
AAUGUUAGCAAAGGAUAUCUGAUGAGUGAUGUUUACGGACCGUUUGCGUUUCAUUACACGCAGCUCAGAGAAGGUUGGUGUGCAG [theeternabot_exclusion_KL_FMN_B_49]	1230 nM	866 nM	1180 nM	890 nM	961 nM
AAUUAAUGUAUAGAUUAUAUACAUUAAUCAGAGGAUAUGCAUUAUUGCAGAAGGCUGAAUGCAGUGAUGUUGCAAUAAUAAUUUA [JR_SSFMNA_Sub003]	60.6 nM	229 nM	186 nM	313 nM	151 nM
AAUUAGCCGUAAGAAUAGUGAUGUUAUUCACGAGGACCGGUACGGCCGCCACUCGAUAUUGGAAUAUUGAAUUUUUUAUUCUAAA [JR_SSTryptoA_Sub009]	524 nM	474 nM	552 nM	577 nM	291 nM
AAUUGGCAGUGAUGUUGUCAAGGACAUACGAAGGAUAUAAGUGAAGUUAGAAGGUCGACCAUCACUUCUUUGCCAUUUGCAUGAC [theeternabot_exclusion_KL_FMN_A_20]	238 nM	214 nM	207 nM	243 nM	193 nM
AAUUUUAAUAAUAAAUAAUAAAUAAAUGAUACCAGUAUUUUUUUUUACCCUUGGCAGCAUAUAUAAGGGCAGUGAUGUUGCCAAA [Same State - Theophylline A]	145 nM	85.2 nM	119 nM	111 nM	131 nM
AAUUUUAAUAAUAAAUAAUAAAUAAAUGAUACCAGUAUUUUUUUUUACCCUUGGCAGCGUAUAUAAGGGCAGUGAUGUUGUCAGA [whbob_SS_Theo_A_w59]	223 nM	144 nM	212 nM	232 nM	164 nM
ACAAGGGAUCCAGAUACCAGCACUCAAGGAGCUAUAUCAGCGAGUGAUGUUCGUUCAUAGUGCCCUUGGCAGCUGUACUUCCUUG [Essoengeis]	115 nM	107 nM	123 nM	114 nM	110 nM
ACACGGGUCUCGGCCGCCACUCUGCCUACCACCAUUAGUGCCAGUGAUGUUGGCAGGUGAGGGCUGAGGACCGGGAGAUCCAUAC [Zaremais]	140 nM	124 nM	136 nM	122 nM	107 nM
ACACGUGUGGCAGGAUAUCGGGCUGUGGAUCGGCUGGUUACUUAUUCUCGACCAGUGAUGUUGGUACGAGAAGGGCUACCCAGAA [Cetebera]	145 nM	124 nM	139 nM	135 nM	116 nM
ACACUAUCGUCAUAGACGGUAGUGACAUCUCAGGAUAUAAGUGAUGUUAGAAGGGAGAAAAUCUUAGGUAUCGAAUAGAUACCAA [FmnA 8 #K4BetweenAptamer #OpenEnded]	415 nM	1100 nM	1270 nM	821 nM	1380 nM
ACACUUUACGUAGGAUAUGCGACGAGUGAUGUUCGUCAGGCGGCUUUAGAUUAAACAAGCCGCCUAGCAGAAGGACGGGCAGUGU [Zaorleon]	126 nM	147 nM	188 nM	178 nM	144 nM
ACACUUUACGUAGGAUAUGCGACGAGUGAUGUUCGUCAGGCGGCUUUAGCUUAAGCAAGCCGCCUAGCAGAAGGACGGGCAGUGU [Bigemalaza]	139 nM	163 nM	179 nM	185 nM	173 nM
ACAGAGGUAACCUGCAGUGAUGUUGCGGAUACCAGCUCACGAAACAGCCCUUGGCAGCCGCCGUCACUAACACGGUGGAUACAGU [theeternabot_exclusion_KL_Theo_A_49]	257 nM	168 nM	230 nM	178 nM	181 nM
ACAGAGUGAUGUUUUGUAAAGAUCUUUGAUACCAGCGCCAGAAAUCGCCCUUGGCAGCAAGCCGUACAUACGUUGAUUGAUCCAC [theeternabot_exclusion_KL_Theo_A_14]	738 nM	694 nM	926 nM	758 nM	577 nM
ACAGAUGCUAGUGAUACCAGACUAGCACUACGUAAUAUGUCAAGUGAUGUUUGACAACUAGUCCCUUGGCAGCGCGAUACGUCUG [Theo B SS t2]	297 nM	353 nM	295 nM	305 nM	261 nM
ACAGUAGUGAUGUCUUUGAUAUUACUACUGCGAGGACCGGUACGGCCGCCACUCGCCCAUUUUUGGGUUGAGAGUGAUGUUCUCA [Skye_SS_TA2]	594 nM	345 nM	474 nM	482 nM	588 nM
ACAGUCCCGCAUGGUGCGAACGAGAGAUGGCGAGGACCGGUACGGCCGCCACUCGAACAAGUGAUGUUUGAUAUCAUUUUUCUAC [theeternabot_sameState_KL_Trp_A_10]	98.6 nM	83.3 nM	117 nM	90.7 nM	85.4 nM
ACAGUCGGCUGUGAUACCAGUCGUAUAACAACAUGUUGCAGUGAUGUUGCGAGAUAGGAUGACCCUUGGCAGCACUCAGUACGAC [Same State Theophylline B GF11]	324 nM	101 nM	248 nM	328 nM	150 nM
ACAUCGGUUGAGAGUGAUGUUCCUUGUGUUCGAGGACCGGUACGGCCGCCACUCGGGUAGAAAAUAACAGAUGUGUUUGAUUUUU [BDazzled - #16 SS Tryptophan A]	163 nM	88.4 nM	144 nM	308 nM	244 nM

Sequence	apparent KD of K4 kissing-loop reporter (input ligand: FMN 200 uM)	apparent KD of K4 kissing-loop reporter (input ligand: arginine 13.2 mM)	apparent KD of K4 kissing-loop reporter (input ligand: none)	apparent KD of K4 kissing-loop reporter [1]	apparent KD of K4 kissing-loop reporter [2]
ACAUGCCCAGUGAUGUUGGAUAAAUAUGAAGGAGCGUGCGAAAGCACAGGUAGGUCGCAUAAUAGCAUGAGUCACGAAAGUGACA [#18 K4 Arginine A Same State]	327 nM	291 nM	356 nM	278 nM	209 nM
ACAUGUGCCAGUGAUGUUGGCGUACGUGAUACCAGACGAAUAAAAGUCCCUUGGCAGCACAAAUAAGCCAAGAUAGAUGAAUGAU [#03 K4 Theophylline A Exclusion]	191 nM	159 nM	203 nM	242 nM	189 nM
ACAUUUUCAAGUGAUACCAGACAUUUUUUUUUCUUUAUUUAUGCUAAGUGAUGUUUAGCAGUCCCUUGGCAGCACUAUUUAACUA [JR_Nu_SSTheophyB_Sub031]	121 nM	101 nM	93.2 nM	169 nM	115 nM
ACCAUCAAAGAUGGCCAGGACUCCGCUGAUACCAGAGUGAAAACACUCCCUUGGCAGCAGGUGAGUGAUGUUCACAAGUCCUGGA [Omel KL Theo A SS B v5]	1160 nM	693 nM	1860 nM	981 nM	857 nM
ACCGGACAAGAGGUGUCAGUGAUGUUGGCGCGAGGACCGGUACGGCCGCCACUCGAGGAAAGCGGUCACGCCCUGGUAGGACUGG [theeternabot_exclusion_KL_Trp_A_22]	169 nM	106 nM	144 nM	128 nM	251 nM
ACCUUAUUUGCCAGUGAUGUUGGACAGGAAGGAGCGGGCAUAAGCCCAGGUAGGUCGCCUGUCAACUUUCUUAUAGCCCAAAGGU [KL-XArg-A18]	308 nM	253 nM	396 nM	314 nM	294 nM
ACGAAGGAUGGAAGGAGCGCUCGUCAGUCCUGCGAGUGAUGUUCGUGGGUAAAUAGUCGCGAGCAGGUAGGUCGCCAUCUUGAGC [Isarteza]	133 nM	104 nM	119 nM	112 nM	108 nM
ACGAUCUUCGGCCUAUGAGUGAUGUUUAUGCGAGGACCGGUACGGCCGCCACUCGGGCGGUUAUUCACUACGCCUCUUCCGUCGA [theeternabot_exclusion_KL_Trp_A_37]	900 nM	435 nM	1040 nM	517 nM	649 nM
ACGCGCGCGAGUGAUGUUCGGAGCGGCUGGCAGGAUAUGGAGCAAUCCAGAAGGGUCGUGGCUGCUGGUAGGAAACUACUGGCAG [#2 Exclusion - FMN A Attempt #3 (HarryS)]	135 nM	239 nM	350 nM	330 nM	299 nM
ACGCGCGCGAGUGAUGUUCGGAGCGGCUGGCAGGAUAUGUAGCAAUGCAGAAGGGUCGUGGCGGCGCGGCCGUAAGGCGGCGCCG [#2 Exclusion - FMN A Attempt #14 (HarryS)]	173 nM	310 nM	404 nM	535 nM	237 nM
ACGUAGUUCUAGGAUACCAGCCAAAUAGCCAGGACGAGAGUCCUGGCUGCCAGUGAUGUUGGCCCUUGGCAGCCUAGAACUACGA [Theo B Ex Mod Omei v10]	166 nM	134 nM	138 nM	233 nM	146 nM
ACGUAGUUCUAGGAUACCAGCCAAAUAGCCAGGACGAGAGUCCUGGCUGCCAGUGAUGUUGGCCCUUGGCAGCCUAGAUCUUCUU [zmodel 1]	161 nM	136 nM	144 nM	218 nM	149 nM
ACGUAGUUCUAGGAUACCAGCCAAGGAGCCCAGGACAAAAGUCCUGGCGCCAGUGAUGUUGGCCCUUGGCAGCCUAGAACUACGA [Omei KL Theo B Exc B v4]	181 nM	157 nM	157 nM	136 nM	151 nM
ACGUCCGGAUUAAUCGUGGGCAUGGUGGAUACCAGUUCUUUAAUGAACCCUUGGCAGCCACAUGAGUGAUGUUCAUGUGCGAUGA [KL-XTheo-A9 #analogue]	145 nM	117 nM	141 nM	187 nM	140 nM
ACGUGCACCAGUGAUGUUGGAAAAUAUGAAGGAGCGGGCGAAAGCCCAGGUAGGUCGCAUAAUAGCACGAGCCACGAAAGUGGCA [#SwitchBubble 20 #K4Early]	125 nM	137 nM	184 nM	132 nM	126 nM
ACUGAGCAUGCGGCCGCCACUUCAGAACGUCGCCCGGAGGGCGACGCCUCCGCAGUGAUGUUGCGGAGGACCGGGCAUGUUCAGA [Omei KL Tryp B Exc A v4]	90.4 nM	78.4 nM	99.8 nM	77.9 nM	85.3 nM
ACUGGAAACAUCACGUAUCCAAAACUGGAUACCAGCUCGGAAACGAGCCCUUGGCAGCCAGAACUUGCAGUGAUGUUGCAAGUAA [Design9]	386 nM	323 nM	384 nM	392 nM	398 nM
AGAAACUUGUAUGUCGGCCCUGCGCGCGAUACCAGCCAAAUGGAUGGCCCUUGGCAGCGCAGCGAGUGAUGUUCGCCCGGCUGAC [Exclusion Theophylline A GF 21]	77 nM	108 nM	95.9 nM	110 nM	65.7 nM
AGAACUGUCUGAGAUACCAGCCAAGGAGUGAUGUUCCGGCUCGACGAAACGUCGAGCAAUGGCCCUUGGCAGCUCAGACAGUUCA [Omei KL Theo B SS A v3]	387 nM	80.9 nM	182 nM	398 nM	242 nM
AGAACUGUCUGAGAUACCAGCCAGGAAGUGAUGUUUCCAGCUCGACGAAAGUCGAGCCAUGGCCCUUGGCAGCUCAGACAGUUCA [Omei KL Theo B SS A v4]	178 nM	147 nM	149 nM	118 nM	166 nM
AGAACUGUCUGAGAUACCAGCCGAGGAGUGAUGUUCCGGCUCGACGAAACGUCGAGCCACGGCCCUUGGCAGCUCAGACAGUUCA [Omei KL Theo B SS A v1]	1360 nM	287 nM	647 nM	1060 nM	455 nM
